These results are taken from the DeepSol protein solubility set.

This series can be described thus: soluble on expression in E. coli; label from the status in PepcDB or PDB records.
For the sequence “MGHHHHHHSHAPNCTRKSTQSDLAFFRFPRDPARCQKWVENCRRADLEDKTPDQLNKHYRLCAKHFETSMICRTSPYRTVLRDNAIPTIFDLTSHLNNP”, the “soluble on expression in E. coli” value is on record as “not soluble”.

Turning to “MTDFFRFPNTPHLLWLGQGQPRDDKILSDAEIAALLQDEVLIEEKLDGANLGISLDEHGELRAQNRGQYLPQPFSGQFSRLNSWLGQHGEILKHTLTPEMILFGEWCAARHSLDYNKLPDWFLLFDVYDREAGKFWSVERRNQLAQKLNITTVPLLKRTKITCNQLVQLLDDAQSRYRSGKVEGIVIRCDSPLWCESRAKLVNREFVQAIEDHWRSRSIEWNLVHAGSVKRS”, the “soluble on expression in E. coli” value is recorded as “not soluble”.

For “MGSDKIHHHHHHMRTEFIPPSVTRAAFRLPTLSRLPPLTALRAFVVAARHASFSRAAEELHVSTAAIGQQVRILETHLGQPLFSRQRGELVLTDAGSTLYPGLADAFETMIGSLSDLMASGSRRQVKVLAEGCFAARWLAPRLGRIVPALGDVDIWIESLEGDAIDLTQFDADCAIVATHGQIPGFIHEPLFADTVSAVCTPDFAARHQLCGEPERLRDISFAMLRGNGGDAAFEWANWLRACRIPLRLSATGPRFSRQTALIEAILSGHGIGLARHSLISDELKSGRLIAAFGTPQPTASRYHLLTSPDRRRLPEIASLLALLREDIRSLEAAA”, the “soluble on expression in E. coli” value was “not soluble”.

On to “MGSDKIHHHHHHMQIRADFDSGNIQVIDASDPRRIRLAIRPDLASQHFQWFHFKVEGMAPATEHCFTLVNAGQSAYSHAWSGYQAVASYDGERWFRVPSQYDADGLHFQLEPEESEVRFAYFEPYSRERHARLVERALGIEGVERLAVGTSVQGRDIELLRVRRHPDSHLKLWVIAQQHPGEHMAEWFMEGLIERLQRPDDTEMQRLLEKADLYLVPNMNPDGAFHGNLRTNAAGQDLNRAWLEPSAERSPEVWFVQQEMKRHGVDLFLDIHGDEEIPHVFAAGCEGNPGYTPRLERLEQRFREELMARGEFQIRHGYPRSAPGQANLALACNFVGQTYDCLAFTIEMPFKDHDDNPEPGTGWSGARSKRLGQDVLSTLAVLVDELR”, for which the “soluble on expression in E. coli” value is on record as “not soluble”.

For “MSLKIRLPEMIDYFRKENGWTMKEFGEKLGKSESAISKWIKGVRSPMVEDFDKMVNLFNTDPDTLMYGASDLSTTLSEINKISSQLEEPRQKVVLNTATNQLDEQNQEKKKESKVIPINKIPDDLPPYISRKILENFVMPTNTMEYEPDEDMVDVPILGRIAAGLPLDAVENFDGTRPVPAHFLSSARDYYWLMVDGHSMEPKIPFGSYVLIEAVPDVTDGTIGAVLFQDDCQATLKKVYHEIDCLRLVSINKEFKDQFATQDNPAAVIGQAVKVEIDLEGHHHHHH”, the “soluble on expression in E. coli” value is recorded as “soluble”.

Take “MSLKQIPLAERMRPKTLADYVGQQHLIGSGAVLRQMIEQGQTPSMILWGPPGVGKTTLAEIIAHEVDAPFYTLSAVSSGVKEVREVIADIESNRGNLFDKGGRAILFIDEIHRFSKSQQDSLLAAVERGIVTLIGATTENPSFEVIRPLLSRCQVYVLKPQSDEDLLLLAHRAIDRDELLAAKHPVLEETEALLLYAGGDARKLLNILDLLATSEVEDRLVITNEKIRQRLQENPAAFDKGGELHYDIASAFIKSIRGSDPDAAIYWLARLIDGGEEPSFIARRLIISASEDIGLANPNAMLIAMACAEALDRIGWPEGRIPLAEATIYLATSEKSNSAYLAIDSALEYVRQSGNLPVPLHLRNAPTRLMADLDYGKGYKYSHDFPEHFVSQQYLPDKAANTSFWTPQMHTVHEAKLGERMKRWWKREKSQKDEGHHHHHH”: the “soluble on expression in E. coli” value was “soluble”.

Take “MSLTSPKRNIVGFTIVNDKHEFAQRLINAFKAEAKANKYEALVATSQNSRISEREQILEFVHLKVDAIFITTLDDVYIGSAIEEAKKAGIPVFAIDRMIRSDAVVSSITSNNQMIGEQLASYIKNELIKQTGRSTGRIVEITGTANVYTTNERHRGFLKGIENEPTLSIVDSVSGNYDPVTSERVMRQVIDSGIPFDAVYCHNDDIAMGVLEALKKAKISGKIVVGIDGNRAILEAVDMKSMDATVVQSAEEMMKVAFSALKLHTKNKKIPDRFYTYSYLYDGSREGHHHHHH”: the “soluble on expression in E. coli” value was “soluble”.

For “MWPAPRRVNLRSLGIAWPSPGGLDTLASNFPSEGCQNMNLYSLLSARAAGGKPVRVGLIGAGKFGSMVLAQAQRIAGFHMVAVADLNVGKARESFDRVGWPKERYDATSCADALKSGKTYVTDDVNELFACGEIECIIEATGHPLAGARHALGAIDHNKHVVMVNVEADVMVGPILAEKARAKGLIYSMAYGDQPALICELVDWARATGFEVVSAGKGMNFEPRYRYSTPDTVWSYFGWTDEEVAKGDFNPKMYNSFTDGTKAAIEMAAVANGTGLDCPDDGLAFPPAGLHDLARVFRPAADGGRMSRSGLVDIAASQEPDGREVFNNIRYGVFVTFKAHNDYARACFKQYGLLTDPSGWYASMWRPFHIIGLETSISVLSAVLRNEPTGCSKEFRGDAVATAKKDMQPGEMLDGEGGYAVWANAIPATRSLDIKALPIGLAHNVKLKRPIKKDQIVSFDDVELVSDLDVVKLRQDMEHQFRPQKDAAA”, the “soluble on expression in E. coli” value is reported as “not soluble”.

As for “MKEKIPFYNEKEFHDMVKKTKKGTFSGWYIIDKDNNSVEFSGKFNRQFKLNKPVIPVNTEYVTRKEFNEYKNSNDQRLTKIETTLAAQGEQINKLTQTVEKQGEQINQLVQVVLLHGEQINKLTQTVEKQGEQIKELQIEQKAQGETLKLILQTLQKMSDRLDKMEVKMDKMEVKMDKMEVKMDKMEKRIDKLESKLEHHHHHH”, the “soluble on expression in E. coli” value is reported as “not soluble”.

For “MFSVYAHRVAAVKDEENGAVKKVTDSVENYNSENRFERTIIVANDNKTAILLILRLKQDGVKTSVFTNYLADDEIVLGEQKKAFVEGAHKVAVCTTQMFEKMEFDVVKHYIFVDAPAEEKLRDQLRQKAVCEGKKIRVDLVMSESYEVSVKVEEKPAEASKPSPKRKCSFDIYSIKPNKQGKFVIPAEYMGFDESAEDDEYDSEYDDDDYNPFKWLGF”, the “soluble on expression in E. coli” value is “not soluble”.

For “MGHHHHHHSHMEGSETGSREGSDVACTEGICNHDEHGDDSCVHHCEDKEDDGDSCVECWANSEENDTKGKNKKKKKKSKILKCDEHIQKLGSCITDPGNRETSGNTMHTVFHRDKTKDTHPESCCSSEKGGQPLPWFEHRKNVPQFAEPTETLFGPDSGKGAKSLVELLDESECTSDEEIFISQDEIQSFMANNQSFYSNREQYRQHLKEKFNKYCRLNDHKRPICSGWLTTAGAN”, the “soluble on expression in E. coli” value was “not soluble”.

For “MSLFTGYGNCYRLDALELAAEHGHTMQHWTFKTIEHFRSILANPEFPCLFGRKAVNGETCHILFARAEQLADDIAQGLANYVRTVAPIAPKQRIGSPLVVFLETAAGSSLAEQQALAWKVLRGVHARDPHPWPQGIPTDPDDTGWSFCYAGMPLFINMNFPGHQQMKSRNLGQHITFVINPRENFDEVANANTESGKRIRERIRERVHHYNDGVVPDTLGFFGDTDNYEWKQYQLQEAGSLNPSRCPFHAHAAHQPTPDILIENEGHHHHHH”, the “soluble on expression in E. coli” value was “not soluble”.

As to “GIDPFTGIDPFTGTQACITAASAVSGIIADLDTTIMFATAGTLNREGAETFADHREGILKTAKVLVEDTKVLVQNAAGSQEKLAQAAQSSVATITRLADVVKLGAASLGAEDPETQVVLINAVKDVAKALGDLISATKAAAGKVGDDPAVWQLKNSAKVMVTNVTSLLKTVKAVEDEATKGTRALEATTEHIRQELAVFCSPEPPAKTSTPEDFIRMTKGITMATAKAVAAGNSCRQEDVIATANLSRRAIADMLRACKEAAFHPEVAPDVRLRALHYGRECANGYLELLDHVLLTLQKPNPDLKQQLTGHSKRVAGSVTELIQAAEAMKGT”, the “soluble on expression in E. coli” value is given as “soluble”.

With “MGSDKIHHHHHHMHFNAPSYPKQWFDTKSAGTPVVILTGMGCSYEEWYEVIQSLRPAHRILSFHRHSWKEGDGIHRTGHAIQQLQTLLSGSNVDEPILLIGHSYGGLIAQEFTKLFPERIKGLILVDSTSVDLHELDALDTPVLDAVSSDAAWQALCRDYAIKTKEQLKQLLQPVLTGAQKRLPQAVQDALVDFQTEPDLYAMMDSEVEHWKTDAARIRTGPFPDVPLIVIGRDPELSIQDGINDGLPEDELRQVEETWHRLVLRQATLTKQADFITATGAGHAIHLDRPDLVISAVTKLDVT”, the “soluble on expression in E. coli” value was “not soluble”.

“MHHHHHHSSGRENLYFQGSGTIYGWGHNHRGQLGGIEGAKVKVPTPCEALATLRPVQLIGGEQTLFAVTADGKLYATGYGAGGRLGIGGTESVSTPTLLESIQHVFIKKVAVNSGGKHCLALSSEGEVYSWGEAEDGKLGHGNRSPCDRPRVIESLRGIEVVDVAAGGAHSACVTAAGDLYTWGKGRYGRLGHSDSEDQLKPKLVEALQGHRVVDIACGSGDAQTLCLTDDDTVWSWGDGDYGKLGRGGSDGCKVPMKIDSLTGLGVVKVECGSQFSVALTKSGAVYTWGKGDYHRLGHGSDDHVRRPRQVQGLQGKKVIAIATGSLHCVCCTEDGEVYTWGDNDEGQLGDGTTNAIQRPRLVAALQGKKVNRVACGSAHTLAWSTSKP”: the “soluble on expression in E. coli” value was “soluble”.

Regarding “MSLKIAAFGEVMLRFTPPEYLMLEQTEQLRMNFVGTGVNLLANLAHFQLETALITKLPANRLGEAGKAALRKLGISDQWVGEKGDHIGSFFAEMGYGIRPTQVTYQNRHQSAFGISEAKDYDFEAFLAEVDMVHICGISLSLTEKTRDAALILAQKAHAYQKKVCFDFNYRPSLNTANSALFMRQQYERILPYCDIVFGSRRDLVELLGFIPREDLEGEAQETELIQRFMSQYNLEWFAGTTRSHSQNQNYLSGYLYTQNEYQQSEKRPLLNLDRIGAGDAYAAGILYGYSQNWSLEKAVTFATVNGVLAHTIQGDIPLTTVKQVNHVLEHPNIDLIREGHHHHHH”, the “soluble on expression in E. coli” value is reported as “soluble”.

As for “MRNKDLEPHSFELWLNAAKTNLDKYEMALIITATLGLRRGEVMGLRNESIKISHDQINDADVAQISIDMQRNTNELNGGPLKTKSSYRTIWAFGKTVDHLKYAMITADNLRQRNNIQAEKHWLWLNNDGNPLHPTHLNRLMRRVSNRSGVEVYPHLLRHYFATQAIAANKPQIDVMHYLGHKNLQMTADYTRSTKAASLNVFNSIDKFLLEHHHHHH”, the “soluble on expression in E. coli” value was “not soluble”.

Take “EGLDYLTAPNPPSIREELCTASHDTITVHWISDDEFSISSYELQYTIFTGQANFISLYNSVDSWMIVPNIKQNHYTVHGLQSGTRYIFIVKAINQAGSRNSEPTRLKTNSQPFK”: the “soluble on expression in E. coli” value is recorded as “soluble”.

With “MAHHHHHHMHAEAAAEAAMPVIATLSSRVVRIMGLNPGYMTLQGSNTYLVGTGQERLLIDSGEGVEGYGHLLQKAVAEESTRLGGPVHISKLLLTHWHGDHIGGVETVRRLFPQVQLLKQPSQYAHTEVDALCQVPPEVVKVEGATLQLVHTPGHTDDHLCAFLQEERALFTSDTVLGTGTSVFSSFRDYMASLHVLERMKPERLYPAHGPVVEDGTARIEEIIRHRHTREKQILQVLCERTHGVSALDSEKGLTVRELVDTIYTTIPAALKTAAGTNVFHHVKKLLNEGRVVVRYAPADLVHFLKDATDYTVFGEGADADVKVIERILTEFRVAAAGVSSGAP”, the “soluble on expression in E. coli” value was “soluble”.

Turning to “MYMASISLKKGQKVDLTKTNPGLSKVLVGLGWDTNRYDGQNDFDLDVSIFLVGANGKVSGAEDFVFYNNPKGANGAVEHLGDNRTGEGEGDDEAIKVDLKNVPAHIERICFTITIYDGEGRSQNFGQVSNSFVRILDEEKNAELIRYDLGEDFSIETAVVVGELYRHAGDWKFNAIGSGFQGGLASLCNNFGLDVE”, the “soluble on expression in E. coli” value is listed as “not soluble”.
